Test results reported in article PMC11500471 (Protein Science : A Publication of the Protein Society, 2024).
Where a chain is given by its changes, count along the chain named. Numbers in names are those of the source. Where “and” joins values, the source holds several entries; their conditions need not be identical. Identical values can stand only once. Like-named read-outs stand apart in the source and are kept apart here. Each block holds one molecule with its values, some of them ahead of it.

Key:
[1] = biological target: GRPEL1, human, recombinant, without mitochondrial targeting sequence, His tag kept (human) (UniProt Q9HAV7); assay: SEC-MALS
[2] = biological target: mitochondrial HSP70 (mtHSP70), human, recombinant, His-tagged (human) (UniProt P38646); assay: SEC-MALS
[3] = biological target: GRPEL2, human, recombinant, without mitochondrial targeting sequence, His tag kept (human) (UniProt Q8TAA5); assay: SEC-MALS
[4] = biological target: mitochondrial HSP70 (mtHSP70), human, recombinant, His-tagged (human) (UniProt P38646); assay: MST
[5] = biological target: mitochondrial HSP70 (mtHSP70), human, recombinant, His-tagged (human) (UniProt P38646); assay: MST; remark: listed apart in the source
[6] = biological target: mitochondrial HSP70 (mtHSP70), human, recombinant, His-tagged (human) (UniProt P38646); assay: MST; remark: listed apart in the source
[7] = biological target: the molecule itself; assay: SEC-MALS

stoichiometry N [1]: 2 and 4
stoichiometry N (GRPEL1 per mtHSP70 (2:1 complex)) [2]: 2
stoichiometry N (GRPEL1 per mtHSP70 (2:2 complex)) [2]: 1
Molecule: GRPEL1, human, recombinant, without mitochondrial targeting sequence, His tag kept (from UniProt Q9HAV7 28-217) (natural protein)

stoichiometry N [3]: 2 and 4
Molecule: GRPEL2, human, recombinant, without mitochondrial targeting sequence, His tag kept (from UniProt Q8TAA5 33-225) (natural protein)

Kd [4]: 373 nM
Kd [5]: 152 nM
Kd [6]: 942 nM
B1: GRPEL2, human, recombinant, without mitochondrial targeting sequence, His tag cleaved at the TEV site (natural protein)
chain: STATQRTAGEDCRSEDPPDELGPPLAERALRVKAVKLEKEVQDLTVRYQRAIADCENIRRRTQRCVEDAKIFGIQSFCKDLVEVADILEKTTECISEESEPEDQKLTLEKVFRGLLLLEAKLKSVFAKHGLEKLTPIGDKYDPHEHELICHVPAGVGVQPGTVALVRQDGYKLHGRTIRLARVEVAVESQRRL

Kd [4]: 457 nM
B2: GRPEL2-C97A, human, recombinant, without mitochondrial targeting sequence, His tag kept (natural protein, UniProt Q8TAA5 33-225, looked up)
chain: B1 chain with C65A
stoichiometry N [7]: 2 and 4

Kd [4]: 203 nM
Kd [6]: 204 nM
B3: GRPEL2-C87A, human, recombinant, without mitochondrial targeting sequence, His tag kept (natural protein, UniProt Q8TAA5 33-225, looked up)
chain: B1 chain with C55A
stoichiometry N [7]: 2 and 4
